Target: T1, Myc-Tet-C (Drosophila, UniProt M9NEY8-5 1846-2921)
T1 construct: Drosophila Tet, C-terminal domain, aa1846-2921 of Tet-PF (FBpp0306013); also called C-terminal domain of Tet; source: bacteria (E. coli), pET32a(+), purified (Ni-NTA); not shown: Myc, N-terminal, kept
Test: pull-down; in vitro binding of two purified proteins (10 μg of each), overnight at 4 °C in Buffer A (50 mM Tris-HCl pH 7.5, 50 mM NaCl, 5% glycerol, 1 mM EDTA, 0.1% Igepal CA-630) with Dynabeads Protein G and 5 μg antibody (anti-HA, anti-Myc or anti-Strep); six washes; immunoblot
Conditions: both partners purified

T1 sequence (M9NEY8 1785-2860): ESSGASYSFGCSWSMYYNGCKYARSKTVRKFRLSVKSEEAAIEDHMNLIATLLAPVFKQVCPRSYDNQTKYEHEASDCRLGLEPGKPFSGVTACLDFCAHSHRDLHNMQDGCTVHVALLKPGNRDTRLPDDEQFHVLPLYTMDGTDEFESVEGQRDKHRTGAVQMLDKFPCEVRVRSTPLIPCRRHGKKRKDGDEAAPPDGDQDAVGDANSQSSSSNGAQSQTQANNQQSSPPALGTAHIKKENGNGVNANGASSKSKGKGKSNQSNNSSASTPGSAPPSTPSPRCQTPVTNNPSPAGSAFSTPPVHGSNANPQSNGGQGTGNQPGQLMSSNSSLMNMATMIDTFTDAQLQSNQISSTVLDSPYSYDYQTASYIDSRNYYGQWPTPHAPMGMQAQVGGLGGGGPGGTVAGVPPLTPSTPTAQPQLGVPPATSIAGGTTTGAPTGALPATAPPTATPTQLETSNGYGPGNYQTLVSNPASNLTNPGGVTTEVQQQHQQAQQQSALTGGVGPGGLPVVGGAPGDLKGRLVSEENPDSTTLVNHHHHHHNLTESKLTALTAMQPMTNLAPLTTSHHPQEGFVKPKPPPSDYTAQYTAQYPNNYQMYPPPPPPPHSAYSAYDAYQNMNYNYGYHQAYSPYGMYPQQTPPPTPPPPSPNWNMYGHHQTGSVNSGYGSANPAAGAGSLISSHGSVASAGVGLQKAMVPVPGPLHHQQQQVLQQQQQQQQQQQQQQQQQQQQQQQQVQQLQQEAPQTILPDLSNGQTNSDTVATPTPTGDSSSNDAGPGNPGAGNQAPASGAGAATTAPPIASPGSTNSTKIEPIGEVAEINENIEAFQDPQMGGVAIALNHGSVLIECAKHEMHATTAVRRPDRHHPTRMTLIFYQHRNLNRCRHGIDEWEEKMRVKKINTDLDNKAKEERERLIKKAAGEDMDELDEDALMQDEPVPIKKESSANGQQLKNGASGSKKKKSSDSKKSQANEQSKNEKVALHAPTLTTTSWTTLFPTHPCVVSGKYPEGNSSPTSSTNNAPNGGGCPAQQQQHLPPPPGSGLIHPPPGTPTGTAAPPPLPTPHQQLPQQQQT

| Binder | binding result |
| --- | --- |
| HA-Stat92E (natural protein, Drosophila, UniProt Q24151 1-761, looked up, Drosophila Stat92E, full-length isoform Stat92E-PF; source: bacteria (E. coli), pET32a(+), purified (Ni-NTA); not shown: HA, N-terminal, kept) MSLWKRISSHVDCEQRMAAYYEEKGMLELRLCLAPWIEDRIMSEQITPNTTDQLERVALKFNEDLQQKLLSTRTASDQALKFRVVELCALIQRISAVELYTHLRSGLQKELQLVTEKSVAATAGQSMPLNPYNMNNTPMVTGYMVDPSDLLAVSNSCNPPVVQGIGPIHNVQNTGIASPALGMVTPKVELYEVQHQIMQSLNEFGNCANALKLLAQNYSYMLNSTSSPNAEAAYRSLIDEKAAIVLTMRRSFMYYESLHEMVIHELKNWRHQQAQAGNGAPFNEGSLDDIQRCFEMLESFIAHMLAAVKELMRVRLVTEEPELTHLLEQVQNAQKNLVCSAFIVDKQPPQVMKTNTRFAASVRWLIGSQLGIHNNPPTVECIIMSEIQSQRFVTRNTQMDNSSLSGQSSGEIQNASSTMEYQQNNHVFSASFRNMQLKKIKRAEKKGTESVMDEKFALFFYTTTTVNDFQIRVWTLSLPVVVIVHGNQEPQSWATITWDNAFAEIVRDPFMITDRVTWAQLSVALNIKFGSCTGRSLTIDNLDFLYEKLQREERSEYITWNQFCKEPMPDRSFTFWEWFFAIMKLTKDHMLGMWKAGCIMGFINKTKAQTDLLRSVYGIGTFLLRFSDSELGGVTIAYVNENGLVTMLAPWTARDFQVLNLADRIRDLDVLCWLHPSDRNASPVKRDVAFGEFYSKRQEPEPLVLDPVTGYVKSTLHVHVCRNGENGSTSGTPHHAQESMQLGNGDFGMADFDTITNFENF | binds |
| Strep-Bap55 (natural protein, Drosophila, UniProt Q7K012 1-425, looked up, Drosophila Bap55, full-length Bap55-PA; pFastBac-HTB vectors usually also add an N-terminal His6 tag; source: insect cells (baculovirus), purified (Strep-Tactin XT, Superdex 200)) MSGGTMLYGGDEIGALVFDPGHHSLRVGYAQEDSPKAEIPSVVGIGAAPETNLDPETKTDNNATPNNADQRKFYVDTNYVTVPRSNMEVQTYMKDGMIDNWDLFEKVIDYAYANVIQSEPEYHPVLFSEASWNVRNNREKLTELMFEKYNVPAFFLVKNAVLAAFSSGRATALVVDSGATHTSAVPVHEGYVLSQAVVKSPLGGDFLSRQCRQHLEKHGIDLSPVYKIASKDVVKERDNGRFTLRKLPENLTQSWQNYMLQLMMQDFQMNVLQVLENPFDERVAAQIPTVHYEFPNGYHQDFGSERFKIAESLFDNAMLGAGQLASTSVGMCDADVRLSLFGSVVVTGGNTLLQGFPERLNRDLQLRAPSNTRLKMISANGSVERRFGAWIGGSILASIGTFQQMWISSQEYEEAGKSQVERKCP | binds |

— paper PMC11021519, “Niche Tet maintains germline stem cells independently of dioxygenase activity” (The EMBO Journal, 2024)
